Assay results taken from paper doi:10.1101/2024.01.05.574302 (bioRxiv, 2024).
Values belong to the molecule of their own block, whether it stands above or below them.

B2: ASAP1 SH3 domain (aa. 1083-1147) (domain or fragment, mouse, UniProt Q9QWY8 1083-1147, looked up)
chain: GKNKVRRVKTIYDCQADNDDELTFIEGEVIIVTGEEDQEWWIGHIEGQPERKGVFPVSFVHILSD

How the values were obtained:
[1] = molecular target: B2; assay: ITC
gAnkB aa. 1477-1792 = molecular target: T1, gAnkB aa. 1477-1792 (human, UniProt Q01484 1477-1792); assay: ITC
T1 sequence (looked up): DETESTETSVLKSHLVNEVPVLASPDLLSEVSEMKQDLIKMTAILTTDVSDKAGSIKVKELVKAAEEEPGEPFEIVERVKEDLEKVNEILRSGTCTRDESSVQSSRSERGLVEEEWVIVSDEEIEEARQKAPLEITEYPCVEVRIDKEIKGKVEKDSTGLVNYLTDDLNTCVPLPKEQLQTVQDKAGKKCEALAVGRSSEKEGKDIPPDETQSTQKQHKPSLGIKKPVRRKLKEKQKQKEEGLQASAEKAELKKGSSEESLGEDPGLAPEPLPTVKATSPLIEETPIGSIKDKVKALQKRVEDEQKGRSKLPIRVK

Molecule: GIKKPVRRKLKE (peptide, UniProt Q01484 1699-1710, looked up) [gAnkB peptide (aa. 1699-1710)]
- Kd [1]: ~0.14 µM

Molecule: GIKKPVERKLKE (peptide, UniProt Q01484 1699-1710, looked up) [gAnkB peptide R1705E]
- fold weakening of binding against the wild-type gAnkB peptide [1]: ~125 fold

Molecule: GIKEPVRRKLKE (peptide, UniProt Q01484 1699-1710, looked up) [gAnkB peptide K1702E]
- fold weakening of binding against the wild-type gAnkB peptide [1]: ~120 fold

Molecule: B2
- Kd (gAnkB aa. 1477-1792): ~0.14 µM

Now from value to molecule:

- Kd [1]: 8.9 µM
Molecule: Clasp1 (from UniProt Q7Z460 1-1538) (natural protein)

- fold decrease of affinity against the wild-type gAnkB peptide [1]: ~3 fold
Molecule: GIKKGVRRKLKE (peptide, UniProt Q01484 1699-1710, looked up) [gAnkB peptide P1703G]

- Kd (gAnkB aa. 1477-1792): ~0.068 µM
B1: mouse ASAP2-SH3 (aa. 896-958) recombinant protein (domain or fragment, UniProt Q7SIG6 896-958, looked up)
chain: SKPKRVKALYNCVADNPDELTFSEGDVIIVDGEEDQEWWIGHIDGEPSRKGAFPVSFVHFIAD
